In US20070014799A1 one finds IC50 data, which are given here for one molecule.

In test [1] the target is monoclonal antibody ZAL2-103a producible from the hybridoma ZAL2-103 (FERM BP-8431). Nature of the test: competitive EIA: unlabeled human ZAQL-2 against HRP-labeled human ZAQL-2 on ZAL2-103a (50 ng/ml) captured on anti-mouse immunoglobulin plate.
The target of test [2] is monoclonal antibody ZAL2-106a producible from the hybridoma ZAL2-106 (FERM BP-8432). Nature of the test: competitive EIA: unlabeled human ZAQL-2 against HRP-labeled human ZAQL-2 on ZAL2-106a (50 ng/ml) captured on anti-mouse immunoglobulin plate.

One may read the IC50 as the concentration that gives 50% inhibition. High values mean weaker potency, low ones greater potency.

B1: Human ZAQL-2 (human Bv8 maturation peptide) (ligand)
chain: AVITGACDKDSQCGGGMCCAVSIWVKSIRICTPMGKLGDSCHPLTRKVPFFGRRMHHTCPCLPGLACLRTSFNRFICLAQK
Take B1: the results for the IC50 in test [1] and in test [2] were 0.8 nM and 3 nM, respectively.
